Reference: patent US8114412B2, “T. cruzi-derived neurotrophic agents and methods of use therefor” (priority 1999, dated 2012)
Entries after “also recorded” stand apart in the source; their conditions may differ.

Legend:
N18 cells = assay: Neurite outgrowth assay in N18 cells; assay type: cell-based; conditions: immobilized proteins coated at 500 μg/ml, 17 hours (FIG. 3A)
Method: FIG. 3A is a graph showing that neurite outgrowth in N18 cells is induced by immobilized laminin (Ln), immobilized TS and immobilized fragments of TS. Proteins were immobilized by incubating plates which contained wells filled with solutions of the proteins (protein concentration was 500 μg/ml) at 4° C. overnight. The protein solutions were removed and the plates were further incubated with 1% BSA at room temperature for one hour. N18 cells were cultured in the coated wells in serum-free RPMI-1640/0.2% BSA for 17 hours, and neurite outgrowth was measured by phase-contrast microscopy. […] Ln, laminin; TS, purified T. cruzi trans-sialidase; 7F, recombinant TS from clone 7F; 19Y, recombinant TS from clone 19Y; TS-F, recombinant fragment consisting of amino acid residues 33-666 of TS (SEQ ID NO:2); TS-CC-47, recombinant fragment consisting of amino acid residues 79-478 of TS (SEQ ID NO:2); TS-Cat-47, recombinant fragment consisting of amino acid residues 79-415 of TS (SEQ ID NO:2); BSA, bovine serum albumin.
96-well microtiter plates were coated overnight at 4° C. with the TS or peptides or fragments thereof, or with control proteins laminin (Ln) or bovine serum albumin (BSA) at 500 μg/ml. After removing the compounds, the plates were further incubated with 1% BSA for 1 hour at room temperature and immediately used as substratum for PC12 or N18 (Prasad, K. N., Biol Rev Camb Philos Soc, 66:431-451 (1991)) cells in serum-free RPMI/0.2% BSA. Neurite outgrowth was measured using a phase-contrast microscope 17 hours later.

Akt kinase in PC12 cells = assay: Immunodetection of activated Akt (Ser 473) in PC12 cells; assay type: cell-based, rat; conditions: 100 ng/ml, 2, 5 or 10 minutes; phospho-Akt (Ser 473) antibody
Method: PC12 cells were deprived of serum for 24-48 hours, stimulated with TS, TS-F or LTR for 2, 5 or 10 minutes and immediately lysed with 2% SDS. In studies using the PI-3 kinase inhibitor, LY294002 (LY), cells were pre-treated with the inhibitor (1 μM) for 30 min prior to the addition of TS-F or TS. The proteins in the cell lysate were separated in SDS-10% polyacrylamide gels, transferred to nitrocellulose membrane (Bio-Rad) and the phosphorylated form of protein kinase Akt was detected with phospho-Akt (Ser 473) antibody (New England BioLabs, Beverly, Mass.), followed by alkaline phosphatase-conjugated secondary antibody (Promega, Madison, Wis.). Bands corresponding to phospho-Akt (60 kDa) were quantified using a scanning densitometer (Bio-Rad).

[1] = tested on: human bladder carcinoma T-24 cell line; assay: IL-6 secretion by T-24 carcinoma cells (ELISA); assay type: cell-based; conditions: 24 hours culture
human Schwann cells = assay: Serum withdrawal-induced apoptosis of immortalized human Schwann cells (DAPI); assay type: cell-based
PC12 cells = assay: Trophic factor withdrawal-induced apoptosis of PC12 cells (DAPI/TUNEL); assay type: cell-based, rat; conditions: serum-free RPMI-1640/0.2% BSA, 17 hours, DAPI or TUNEL
Summary of the method: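 PC12 cells were washed and plated at 2×10^5/ml in serum-free RPMI/0.2% BSA on collagen, with or without test agents. Apoptosis was scored by DAPI nuclear staining (300-400 cells counted) or TUNEL. Protection was calculated as 100% − (apoptosis% with agent ÷ apoptosis% in RPMI alone)×100%; wortmannin or LY294002 was added after 24 h, with DAPI read 24 h later.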

B1: TS-F: recombinant full catalytic domain of TS, amino acid residues 33-666, His-tagged, expressed in E. coli (protein, listed as Trypanosoma cruzi)
chain: ETQIAIKNSRVSSVSRVVDPTVIVKGNKLYVLVGSYYSSRSYWSSHGDARDWDILLAVGEVTKSTAGGKITASIKWGSPVSLKKFFPAEMEGMHTNQFLGGAGVAIVASNGNLVYPVQVTNKRKQVFSKIFYSEDDGKTWKFGKGRSDFGCSEPVALEWEGKLIINTRVDWKRRLVYESSDMEKPWVEAVGTVSRVWGPSPKSNQPGSQTSFTAVTIEGMRVMLFTHPLNFKGRCVRDRLNLWLTDNQRIYNVGQVSIGDENSAYSSVLYKDDKLYCLHEINTDEVYSLVFARLVGELRIIKSVLRSWKNWTATCPAFAPLLIQPLRRQRVVVVPLSPRLVLLAFCRQRLPKRMGGSYRCVNASTANAERVRNGLKFAGVGGGALWPVSQQGQNQRYRFANHAFTLVASVTIHEAPRAASPLLGASLDSSGGKKLLGLSYDEKHQWQPIYGSTPVTPTGSWETGKRYHLVLTMANKIGSVYIDGELLEGSGQTVVPDGRTPDISHFYVGGYKRSDMPTISHVTVNNVLLYNRRQLNTEEIRTLFLSQDLIGTEAHMDSSSDSSAHSTPSTPADSSAHSTPSTPVDSSAHSTPSTPADSSAHGTPSTPVDSSAHGTPSTPADSSAHGTPSTPVDS
modifications: His tag
notes: recombinant full catalytic domain of TS, amino acid residues 33-666, His-tagged, expressed in E. coli
Q: For B1, which “neurite outgrowth in N18 cells” value (N18 cells) is on record?
A: induced neurite outgrowth to about the same extent as the intact enzyme

Q: What about the “phosphorylation/activation of Akt kinase in PC12 cells” value (Akt kinase in PC12 cells) of the same molecule?
A: effective in activating Akt

Q: And the “IL-6 secretion by T-24 cells” value [1]?
A: did not promote IL-6 release

Q: What about the “fragmented nuclei in serum-starved Schwann cells transfected with empty vector (neo)” value (human Schwann cells; CD 500 ng/ml) of the same molecule?
A: decreased the number of fragmented nuclei by about ten-fold

Q: And the “survival of Schwann cells transfected with PTEN mutant pG129R” value (human Schwann cells; CD 500 ng/ml)?
A: did not detectably enhance

Q: And the “protection of Schwann cells from apoptosis compared with 2% serum” value (human Schwann cells; CD 500 ng/ml (6 nM) in serum-free DMEM, 72 hours, listed as CD)?
A: nearly as effective as 2% serum

Q: And the “survival of control Schwann cells transfected with GFP vector” value (human Schwann cells; CD 500 ng/ml, serum-free 48 hours)?
A: did increase survival

Q: What about the “survival of Schwann cells over expressing kinase-inactive Akt (AktKI)” value (human Schwann cells; CD 500 ng/ml, serum-free 48 hours, listed as CD) of the same molecule?
A: did not increase survival; also recorded: did not promote survival

Q: And the “rescue from apoptosis of Schwann cells over expressing PTEN” value (human Schwann cells; CD 500 ng/ml, listed as CD)?
A: did not rescue cells from apoptotic death

Q: And the “inhibition of serum withdrawal-induced apoptosis of human Schwann cells” value (human Schwann cells; serum-free DMEM, 24-72 hours, DAPI, listed as CD)?
A: protected Schwann cells against apoptosis; also recorded: protected human Schwann cells from apoptosis; also recorded: dose-dependent inhibition

Q: What about the “protection of PC12 cells from apoptosis induced by trophic factor withdrawal” value (PC12 cells) of the same molecule?
A: survival being induced
